Values quoted from earlier work as cited in publication PMC11939847.

Biological target: BRD4 ET (Homo sapiens) (UniProt O60885)
Assay: SPR

Substance: LKIRL peptide
- Kd: 145 nM
